In article PMC9352680, “A comprehensive thermodynamic model for RNA binding by the Saccharomyces cerevisiae Pumilio protein PUF4”:
Positions count from the first letter of the chain named. In names and notes the source's numbering stands.

T1: PUF4 RNA-binding domain (Saccharomyces cerevisiae, UniProt P25339 537-888)
T1 sequence: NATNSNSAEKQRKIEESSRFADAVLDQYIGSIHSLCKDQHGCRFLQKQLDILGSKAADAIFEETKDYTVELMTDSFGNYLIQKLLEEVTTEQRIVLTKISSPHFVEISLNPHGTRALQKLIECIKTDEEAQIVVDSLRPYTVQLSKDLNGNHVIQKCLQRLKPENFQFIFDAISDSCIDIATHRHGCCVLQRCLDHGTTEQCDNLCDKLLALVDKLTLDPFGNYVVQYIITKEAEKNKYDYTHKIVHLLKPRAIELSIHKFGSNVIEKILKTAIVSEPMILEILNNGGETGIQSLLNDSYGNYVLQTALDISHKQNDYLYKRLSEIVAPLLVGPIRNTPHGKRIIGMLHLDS

B1: Ia_S1_P3E.1_K3.1_C3.1_H3.1_A3.1_F3.1_[T7C]_T3.1 (ssRNA)
RNA: UCUCUUUGUAUACAUCUCUU
B2: Ia_S1_P3E.1_K3.1_C3.1_H3.1_[G2A]_A3.1_F3.1_T3.1 (ssRNA)
RNA: UCUCUUUAUAUAUAUCUCUU
B3: Ia_S2_P5E.1_K5.1_C5.1_H5.1_A5.1_[T5A]_F5.1_T5.1 (ssRNA)
RNA: UUUGAUUAAUAUGAUAUCGUUCUUUCUUGUAAUAUUAUUCUUUCUCGAUAUCAUAUUAAUCUUU
B4: Ib_S3_P4E.1_K4.1_C4.1_H4.1_[T1A]_[G2T]_A4.1_F4.1_T4.1 (ssRNA)
RNA: ACAAACAUUAUAUUAACAAAC
B5: Ib_S3_P4E.1_K4.1_C4.1_H4.1_[G2C]_[T3C]_A4.1_F4.1_T4.1 (ssRNA)
RNA: ACAAACUCCAUAUUAACAAAC
B6: Ib_S3_P4E.1_K4.1_C4.1_H4.1_[G2A]_[A4T]_A4.1_F4.1_T4.1 (ssRNA)
RNA: ACAAACUAUUUAUUAACAAAC
B7: Ib_S3_P4E.1_K4.1_C4.1_H4.1_[T1C]_A4.1_[T5G]_F4.1_T4.1 (ssRNA)
RNA: ACAAACCGUAGAUUAACAAAC
B8: Ib_S3_P4E.1_K4.1_C4.1_H4.1_[T1A]_A4.1_[T5G]_F4.1_T4.1 (ssRNA)
RNA: ACAAACAGUAGAUUAACAAAC
B9: Ib_S3_P4E.1_K4.1_C4.1_H4.1_[T1A]_A4.1_[T5A]_F4.1_T4.1 (ssRNA)
RNA: ACAAACAGUAAAUUAACAAAC
B10: Ib_S3_P4E.1_K4.1_C4.1_H4.1_[T1C]_A4.1_[A6T]_F4.1_T4.1 (ssRNA)
RNA: ACAAACCGUAUUUUAACAAAC
B11: Ib_S3_P4E.1_K4.1_C4.1_H4.1_[T1A]_A4.1_[A6C]_F4.1_T4.1 (ssRNA)
RNA: ACAAACAGUAUCUUAACAAAC
B12: Ib_S3_P4E.1_K4.1_C4.1_H4.1_[G2C]_A4.1_[T7G]_F4.1_T4.1 (ssRNA)
RNA: ACAAACUCUAUAGUAACAAAC
B13: Ib_S3_P4E.1_K4.1_C4.1_H4.1_[T3C]_A4.1_[A6T]_F4.1_T4.1 (ssRNA)
RNA: ACAAACUGCAUUUUAACAAAC
B14: Ia_S2_P5E.1_K5.1_C5.1_H5.1_A5.1_[T6C]_F5.1_T5.1 (ssRNA)
RNA: B3 RNA with A32U, U33C
B15: Ib_S3_P4E.1_K4.1_C4.1_H4.1_[T3C]_A4.1_[T7A]_F4.1_T4.1 (ssRNA)
RNA: ACAAACUGCAUAAUAACAAAC
B16: Ib_S3_P4E.1_K4.1_C4.1_H4.1_[T3A]_A4.1_[T7C]_F4.1_T4.1 (ssRNA)
RNA: ACAAACUGAAUACUAACAAAC
B17: Ib_S3_P4E.1_K4.1_C4.1_H4.1_[T3A]_A4.1_[T7A]_F4.1_T4.1 (ssRNA)
RNA: ACAAACUGAAUAAUAACAAAC
B18: Ib_S3_P5E.1_K5.1_C5.1_H5.1_[G2A]_A5.1_F5.1_[T8A]_T5.1 (ssRNA)
RNA: ACAAACUAUAUUAAUAACAAAC
B19: Ib_S3_P5E.1_K5.1_C5.1_H5.1_[T3G]_A5.1_F5.1_[T8C]_T5.1 (ssRNA)
RNA: ACAAACUGGAUUACUAACAAAC
B20: Ib_S3_P5E.1_K5.1_C5.1_H5.1_[T3C]_A5.1_F5.1_[T8C]_T5.1 (ssRNA)
RNA: ACAAACUGCAUUACUAACAAAC
B21: Ib_S3_P5E.1_K5.1_C5.1_H5.1_[T3G]_A5.1_F5.1_[T8A]_T5.1 (ssRNA)
RNA: ACAAACUGGAUUAAUAACAAAC
B22: Ib_S3_P5E.1_K5.1_C5.1_H5.1_[A4C]_A5.1_F5.1_[T8C]_T5.1 (ssRNA)
RNA: ACAAACUGUCUUACUAACAAAC
B23: Ib_S3_P5E.1_K5.1_C5.1_H5.1_[T3G]_A5.1_F5.1_[T9G]_T5.1 (ssRNA)
RNA: ACAAACUGGAUUAUGAACAAAC
B24: Ib_S3_P5E.1_K5.1_C5.1_H5.1_[T3A]_A5.1_F5.1_[T9A]_T5.1 (ssRNA)
RNA: ACAAACUGAAUUAUAAACAAAC
B25: Ia_S2_P5E.1_K5.1_C5.1_H5.1_A5.1_[T6A]_F5.1_T5.1 (ssRNA)
RNA: B3 RNA with A32U, U33A
B26: Ib_S3_P5E.1_K5.1_C5.1_H5.1_[T1C]_A5.1_F5.1_[A10C]_T5.1 (ssRNA)
RNA: ACAAACCGUAUUAUUCACAAAC
B27: Ib_S3_P5E.1_K5.1_C5.1_H5.1_[G2T]_A5.1_F5.1_[A10T]_T5.1 (ssRNA)
RNA: ACAAACUUUAUUAUUUACAAAC
B28: Ib_S3_P5E.1_K5.1_C5.1_H5.1_[G2A]_A5.1_F5.1_[A10T]_T5.1 (ssRNA)
RNA: ACAAACUAUAUUAUUUACAAAC
B29: Ib_S3_P5E.1_K5.1_C5.1_H5.1_[A4C]_A5.1_F5.1_[A10T]_T5.1 (ssRNA)
RNA: ACAAACUGUCUUAUUUACAAAC
B30: Ib_S3_P5E.1_K5.1_C5.1_H5.1_[T1C]_[G2C]_A5.1_F5.1_T5.1 (ssRNA)
RNA: ACAAACCCUAUUAUUAACAAAC
B31: Ib_S3_P5E.1_K5.1_C5.1_H5.1_[T1C]_[G2T]_A5.1_F5.1_T5.1 (ssRNA)
RNA: ACAAACCUUAUUAUUAACAAAC
B32: Ib_S3_P5E.1_K5.1_C5.1_H5.1_[T1A]_[T3G]_A5.1_F5.1_T5.1 (ssRNA)
RNA: ACAAACAGGAUUAUUAACAAAC
B33: Ib_S3_P5E.1_K5.1_C5.1_H5.1_[T1G]_[A4C]_A5.1_F5.1_T5.1 (ssRNA)
RNA: ACAAACGGUCUUAUUAACAAAC
B34: Ib_S3_P5E.1_K5.1_C5.1_H5.1_[T1A]_[A4C]_A5.1_F5.1_T5.1 (ssRNA)
RNA: ACAAACAGUCUUAUUAACAAAC
B35: Ib_S3_P5E.1_K5.1_C5.1_H5.1_[G2C]_[T3C]_A5.1_F5.1_T5.1 (ssRNA)
RNA: ACAAACUCCAUUAUUAACAAAC
B36: Ia_S2_P5E.1_K5.1_C5.1_H5.1_A5.1_[A7G]_F5.1_T5.1 (ssRNA)
RNA: B3 RNA with A32U, A34G
B37: Ib_S3_P5E.1_K5.1_C5.1_H5.1_[G2A]_[T3A]_A5.1_F5.1_T5.1 (ssRNA)
RNA: ACAAACUAAAUUAUUAACAAAC
B38: Ib_S3_P5E.1_K5.1_C5.1_H5.1_[G2A]_[A4T]_A5.1_F5.1_T5.1 (ssRNA)
RNA: ACAAACUAUUUUAUUAACAAAC
B39: Ib_S3_P5E.1_K5.1_C5.1_H5.1_[T3A]_[A4C]_A5.1_F5.1_T5.1 (ssRNA)
RNA: ACAAACUGACUUAUUAACAAAC
B40: Ib_S3_P5E.1_K5.1_C5.1_H5.1_[T1G]_A5.1_[T6C]_F5.1_T5.1 (ssRNA)
RNA: ACAAACGGUAUCAUUAACAAAC
B41: Ib_S3_P5E.1_K5.1_C5.1_H5.1_[T1C]_A5.1_[T6A]_F5.1_T5.1 (ssRNA)
RNA: ACAAACCGUAUAAUUAACAAAC
B42: Ib_S3_P5E.1_K5.1_C5.1_H5.1_[T1A]_A5.1_[T6C]_F5.1_T5.1 (ssRNA)
RNA: ACAAACAGUAUCAUUAACAAAC
B43: Ib_S3_P5E.1_K5.1_C5.1_H5.1_[T1A]_A5.1_[T6A]_F5.1_T5.1 (ssRNA)
RNA: ACAAACAGUAUAAUUAACAAAC
B44: Ib_S3_P5E.1_K5.1_C5.1_H5.1_[T1G]_A5.1_[A7T]_F5.1_T5.1 (ssRNA)
RNA: ACAAACGGUAUUUUUAACAAAC
B45: Ib_S3_P5E.1_K5.1_C5.1_H5.1_[T1C]_A5.1_[A7T]_F5.1_T5.1 (ssRNA)
RNA: ACAAACCGUAUUUUUAACAAAC
B46: Ib_S3_P5E.1_K5.1_C5.1_H5.1_[T1A]_A5.1_[A7T]_F5.1_T5.1 (ssRNA)
RNA: ACAAACAGUAUUUUUAACAAAC
B47: Ia_S2_P5E.1_K5.1_C5.1_H5.1_A5.1_[A7C]_F5.1_T5.1 (ssRNA)
RNA: B3 RNA with A32U, A34C
B48: Ib_S3_P5E.1_K5.1_C5.1_H5.1_[G2T]_A5.1_[T5A]_F5.1_T5.1 (ssRNA)
RNA: ACAAACUUUAAUAUUAACAAAC
B49: Ib_S3_P5E.1_K5.1_C5.1_H5.1_[G2A]_A5.1_[T5G]_F5.1_T5.1 (ssRNA)
RNA: ACAAACUAUAGUAUUAACAAAC
B50: Ib_S3_P5E.1_K5.1_C5.1_H5.1_[G2C]_A5.1_[T6A]_F5.1_T5.1 (ssRNA)
RNA: ACAAACUCUAUAAUUAACAAAC
B51: Ib_S3_P5E.1_K5.1_C5.1_H5.1_[G2T]_A5.1_[T6C]_F5.1_T5.1 (ssRNA)
RNA: ACAAACUUUAUCAUUAACAAAC
B52: Ib_S3_P5E.1_K5.1_C5.1_H5.1_[G2A]_A5.1_[T6A]_F5.1_T5.1 (ssRNA)
RNA: ACAAACUAUAUAAUUAACAAAC
B53: Ib_S3_P5E.1_K5.1_C5.1_H5.1_[T3G]_A5.1_[T5C]_F5.1_T5.1 (ssRNA)
RNA: ACAAACUGGACUAUUAACAAAC
B54: Ib_S3_P5E.1_K5.1_C5.1_H5.1_[T3A]_A5.1_[T5C]_F5.1_T5.1 (ssRNA)
RNA: ACAAACUGAACUAUUAACAAAC
B55: Ib_S3_P5E.1_K5.1_C5.1_H5.1_[A4C]_A5.1_[T5C]_F5.1_T5.1 (ssRNA)
RNA: ACAAACUGUCCUAUUAACAAAC
B56: Ib_S3_P5E.1_K5.1_C5.1_H5.1_[A4C]_A5.1_[A7C]_F5.1_T5.1 (ssRNA)
RNA: ACAAACUGUCUUCUUAACAAAC
B57: Ib_S4_P3E.1_K3.1_C3.1_H3.1_A3.1_F3.1_[T7G]_[A8C]_T3.1 (ssRNA)
RNA: UUUGACAACUGAUCGUUCUUUCUUGUAUAGCUUCUUUCUCGAUCAGUUGUCUUU
B58: Ia_S2_P5E.1_K5.1_C5.1_H5.1_A5.1_[A7T]_F5.1_T5.1 (ssRNA)
RNA: B3 RNA with A32U, A34U
B59: Ib_S4_P3E.1_K3.1_C3.1_H3.1_A3.1_F3.1_[T7C]_[A8G]_T3.1 (ssRNA)
RNA: B57 RNA with G30C, C31G
B60: Ib_S4_P3E.1_K3.1_C3.1_H3.1_A3.1_F3.1_[T7C]_[A8C]_T3.1 (ssRNA)
RNA: B57 RNA with G30C
B61: Ib_S4_P3E.1_K3.1_C3.1_H3.1_[T1A]_A3.1_F3.1_[T7C]_T3.1 (ssRNA)
RNA: B57 RNA with U24A, G30C, C31A

Molecular target: T1, PUF4 RNA-binding domain
Assay: Mg; RNA-MaP; 20 mM Na-HEPES pH 7.4, 30 mM KOAc, 0.75 mM MgCl2, 0.1% Tween-20, 5% glycerol, 0.1 mg/mL BSA, 2 mM DTT; 25 C; 0.0125-409.6 nM protein
Conditions: tags: N-His6-TEV cleaved; C-SNAP kept, Cy3B-labelled; label: tethered on chip by stalled RNA polymerase

Binder | Kd
B1 | 0.0446 µM
B2 | 0.637 µM
B3 | 0.00427 µM
B4 | > 2.3 µM
B5 | > 2.3 µM
B6 | > 2.3 µM
B7 | 0.455 µM
B8 | 0.829 µM
B9 | 0.596 µM
B10 | 1.4 µM
B11 | > 2.3 µM
B12 | > 2.3 µM
B13 | 1.91 µM
B14 | 0.00173 µM
B15 | 1.45 µM
B16 | 1.13 µM
B17 | > 2.3 µM
B18 | 1.58 µM
B19 | > 2.3 µM
B20 | > 2.3 µM
B21 | > 2.3 µM

Binder | Kd
B22 | 1.03 µM
B23 | > 2.3 µM
B24 | > 2.3 µM
B25 | 0.00233 µM
B26 | > 2.3 µM
B27 | > 2.3 µM
B28 | 0.994 µM
B29 | 0.641 µM
B30 | > 2.3 µM
B31 | > 2.3 µM
B32 | > 2.3 µM
B33 | > 2.3 µM
B34 | > 2.3 µM
B35 | > 2.3 µM
B36 | 0.0116 µM
B37 | > 2.3 µM
B38 | > 2.3 µM
B39 | > 2.3 µM
B40 | 1.45 µM
B41 | 1.18 µM
B42 | > 2.3 µM

Binder | Kd
B43 | 1.74 µM
B44 | 1.6 µM
B45 | > 2.3 µM
B46 | > 2.3 µM
B47 | 0.00306 µM
B48 | > 2.3 µM
B49 | > 2.3 µM
B50 | > 2.3 µM
B51 | > 2.3 µM
B52 | 1.05 µM
B53 | > 2.3 µM
B54 | > 2.3 µM
B55 | 0.545 µM
B56 | 2.19 µM
B57 | 0.0853 µM
B58 | 0.00211 µM
B59 | 0.0604 µM
B60 | 0.0289 µM
B61 | > 2.3 µM
